Assay results taken from patent publication US20090053138, “Stabilized Aptamers to Platelet Derived Growth Factor and their Use as Oncology Therapeutics” (published 2009).

Molecular target: PDGF-BB (Homo sapiens, UniProt P01127 P01127:82-190)
Assay: cell_activity; 3T3 proliferation; Table 2 prints 3.45
Conditions: tags: PeproTech; chain copies: 2 (inferred, homodimer)

Sequence of PDGF-BB (P01127 82-190, one chain of several): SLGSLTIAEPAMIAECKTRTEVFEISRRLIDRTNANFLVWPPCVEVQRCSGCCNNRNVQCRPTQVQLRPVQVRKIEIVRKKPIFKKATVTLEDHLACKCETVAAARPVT

For CACAGGCTACGGCACGTAGAGCATCACCATGATCCTGTG (ssDNA, 3'-inverted dT) [ARC124], the IC50 was 20.7 nM.
